Our source for the EC50 values is patent publication US20230051715A1 (MABWELL THERAPEUTICS, published 2023).

Positions count from the first letter of the chain named. Numbers in names are those of the source.

In assay [1] the target is T1, human C1s mutant M17 (N380H) (human, UniProt P09871 16-688).
T1 construct: The entry is the mutant itself
T1 sequence: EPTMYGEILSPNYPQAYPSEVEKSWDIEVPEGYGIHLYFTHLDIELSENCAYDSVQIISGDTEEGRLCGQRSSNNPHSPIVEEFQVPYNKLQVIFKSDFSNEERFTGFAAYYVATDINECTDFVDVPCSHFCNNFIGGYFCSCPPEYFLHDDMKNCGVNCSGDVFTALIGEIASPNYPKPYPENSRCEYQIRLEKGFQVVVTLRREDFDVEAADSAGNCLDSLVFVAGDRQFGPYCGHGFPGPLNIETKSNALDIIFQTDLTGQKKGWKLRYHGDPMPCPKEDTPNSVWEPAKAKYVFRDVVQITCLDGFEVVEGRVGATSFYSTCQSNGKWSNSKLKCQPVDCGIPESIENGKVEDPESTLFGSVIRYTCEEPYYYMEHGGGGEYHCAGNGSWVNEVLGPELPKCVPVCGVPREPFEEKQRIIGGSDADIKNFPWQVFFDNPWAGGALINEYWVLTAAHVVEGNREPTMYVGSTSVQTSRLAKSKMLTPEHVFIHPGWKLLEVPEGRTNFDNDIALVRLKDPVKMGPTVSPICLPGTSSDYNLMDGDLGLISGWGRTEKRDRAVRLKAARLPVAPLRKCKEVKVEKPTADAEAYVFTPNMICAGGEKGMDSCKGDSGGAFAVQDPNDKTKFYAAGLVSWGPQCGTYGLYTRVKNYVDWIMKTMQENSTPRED
The assay is described as follows: ELISA, plate coated with human C1s mutant M17: N380H, OD450nm. On the procedure:
ELISA was carried out by first coating 96-well plates with 200 ng/well of full-length or truncated C1s proteins overnight. The next morning, plates were blocked with SuperBlock T20 blocking buffer (Thermo Scientific 37536) for 1 h with gentle shaking. Then, various concentrations of anti-C1s antibodies diluted in SuperBlock T20 blocking buffer were added to the plates and incubated for 1 h with gentle shaking. Mouse IgG (Sigma-Aldrich 15381) and human IgG1 (BioXCell BP0297) were used as negative controls. The plates were washed before incubating with HRP conjugated secondary antibodies diluted in SuperBlock T20 blocking buffer (goat anti-mouse IgG (H+L) cross-adsorbed secondary antibody HRP (Invitrogen G-21040) or goat anti-human IgG antibody, HRP conjugate (Millipore AP309P)) for 1 h with gentle shaking. At last, the plates were washed and color developed with ELISA liquid HRP substrate (Sigma-Aldrich), followed by stopping the reaction with addition of 1M H₂SO₄ in the same volume as the ELISA liquid substrate. Bound antibody was measured by absorbance at OD₄₅₀ₙₘ.
Binding of anti-C1s antibodies to mutants M1-M20 of human C1s was measured by ELISA as described in Example 4, and results are shown in FIGS. 6B-6U. All anti-C1s humanized variants including hz2-7(H1L2), hz2-8(H1L2 G80A) and hz2-8(H1L2 G80A/T82A) maintained strong binding properties to the majority (16 out of 20) of C1s mutants including M1 (FIG. 6B), M2 (FIG. 6C), M3 (FIG. 6D). M4 (FIG. 6E), M7 (FIG. 6H), M8 (FIG. 6I), M10 (FIG. 6K), M11 (FIG. 6L), M12 (FIG. 6M), M13 (FIG. 6N), M15 (FIG. 6P), M16 (FIG. 6Q), M17 (FIG. 6R), M18 (FIG. 6S), M19 (FIG. 6T) and M20 (FIG. 6U).
On the technique in general: An ELISA detects its analyte on a solid surface through an enzyme-linked reagent.

The target of assay [2] is T2, active human C1s (CompTech A104 C1s Enzyme) (human, UniProt P09871 16-688).
T2 construct: also called human active C1s; active C1s protein
T2 sequence (looked up): T1 sequence with H380N
The assay is described as follows: ELISA, C1s coated on plate. On the procedure:
(§1) ELISA was carried out by first coating 96-well plates with 200 ng/well of human active C1s (CompTech A104, FIG. 3F) or human C1s proenzyme (CompTech A103, FIG. 3G) proteins overnight. The next morning, plates were blocked with SuperBlock T20 blocking buffer (Thermo Fisher Scientific Inc., Catalog No. 37536) for 1 h with gentle shaking. Then, various concentrations of anti-C1s antibodies diluted in SuperBlock T20 blocking buffer were added to the plates and incubated for 1 h with gentle shaking. Human IgG1 (BioXCell BP0297) was used as a negative control. The plates were washed before incubating with HRP conjugated secondary antibodies diluted in SuperBlock T20 blocking buffer (goat anti-human IgG antibody, HRP conjugate (Millipore AP309P)) for 1 h with gentle shaking. At last, the plates were washed and color developed with ELISA liquid substrate (Sigma-Aldrich), followed by stopping the reaction with addition of the same volume of […] 1M H₂SO₄. Bound antibody was measured by absorbance at OD₄₅₀ₙₘ.
(§2) The EC₅₀ for each antibody and target combination was determined as follows: for antibody 2-7, EC₅₀ for human active C1s is 12 ng/ml and EC₅₀ for human C1s proenzyme is 9 ng/ml; for antibody 2-8, EC₅₀ for human active C1s is 12 ng/ml and EC₅₀ for human C1s proenzyme is 10 ng/ml; for variant hz2-7(1L2), EC₅₀ for human active C1s is 13 ng/ml and EC₅₀ for human C1s proenzyme is 12 ng/ml; and for variant hz2-8(H1L2 G80A/T82A), EC₅₀ for human active C1s is 10 ng/ml and EC₅₀ for human C1s proenzyme is 8 ng/ml.

For assay [3], the target named is T3, human C1s proenzyme (CompTech A103) (human, UniProt P09871 16-688).
T3 construct: also called proenzyme human C1s (native C1s)
T3 sequence (looked up): T1 sequence with H380N
The assay is described as follows: ELISA, C1s coated on plate. On the procedure:
as §1, §2

B1: Anti-C1s antibody hz2-8 (H1L2 G80A) (antibody, V domains shown)
VH: QVQLVQSGAEVKKPGASVKVSCKASGFNIKEYYMHWVRQAPEQGLEWMGWIDPENADTIYAQKFQGRVTITADTSTNTAYMELSSLRSEDTAVYYCARSRLFFAYWGQGTLVTVSS
VL: DIQMTQSPKSLSASVGDRVTITCRASQDVRTALDWYQQKPGQSPKLLIYSASYRYSGVPSRFSGSGSGTDFTLTISSLQPEDFATYYCQQQYTTPYTFGQGTKLEIKR
notes: Humanized variant with G80A in HC CDR2 (already in the entry), human IgG1 / kappa
As for B1, a half-maximal effect in assay [1] (EC50) was put at 0.005 mg/L.

B2: Anti-C1s antibody hz2-8 (H1L2 G80A/T82A) (antibody, V domains shown)
VH: B1 VH with T58A
VL: B1 VL
notes: Humanized variant with G80A and T82A in HC CDR2 (already in the entry), human IgG1 / kappa
As to B2, the 50% effective concentration (EC50) in assay [2] stood at 0.01 mg/L; in assay [3] it was 0.008 mg/L; in assay [1], 0.008 mg/L.

B3: Anti-C1s antibody 2-8 (antibody, V domains shown)
VH: EVQLQQSGAELVRPGALVKLSCKASGFNIKEYYMHWVKQRPEQGLEWIGWIDPENGDTIYDPKFQGKASITADTSSNTAYLQLSSLTSEDTAVYYCARSRLFFAYWGQGTLVTVSA
VL: DIVMTQSHKFMSTSVGDRVSFTCKASQDVRTAVDWYQQKPGQSPKLLIYSASYRYTGVPDRFTGTGSGTDFTFTISSVQAEDLAVYFCQQQYTTPYTFGGGTKLEIKT
notes: the HC/LC entries may hold it too; also called clone 2-8
For B3, the figures for the 50% effective concentration (EC50) in assay [2] and in assay [3] were 0.012 mg/L and 0.01 mg/L, respectively.

B4: Anti-C1s antibody 2-7 (antibody, human IgG1, kappa, V domains shown)
VH: EVKLEESGGGLVPPGGSMKLSCVASGFTFSNYFMNWVRQSPEKGLEWVAEIRLKFTNYATHYAESVEGRFTISRDDSKSSVYLQMNNLRAEDTGIYYCTRDYGSRNGYFDYWGQGTTLTVSS
VL: DIVMTQAAPSVPVTPGESVSISCRSSKSLLHSNGNTFLYWFLQRPGQSPQLLIYRMSNLASGVPDRFSGSGSGTAFTLRVSRVEAEDVGIYYCMQHLEYPYTFGGGTKLEIKT
notes: the HC/LC entries may hold it too; also called clone 2-7
On to B4, for which the EC50 in assay [2] came to 0.012 mg/L; in assay [3], 0.009 mg/L.

B5: Anti-C1s antibody hz2-7(H1L2) (antibody, V domains shown)
VH: EVQLLESGGGLVQPGGSLRLSCAASGFTFSNYFMNWVRQAPGKGLEWVSEIRLKFTNYATHYADSVKGRFTISRDDSKSTLYLQMNSLRAEDTAVYYCTRDYGSRNGYFDYWGQGTLVTVSS
VL: DIVMTQTPLSLPVTPGEPASISCRSSKSLLHSNGNTFLYWFLQKPGQSPQLLIYRMSNLASGVPDRFSGSGSGTDFTLKISRVEAEDVGVYYCMQHLEYPYTFGGGTKLEIKR
notes: Humanized, human IgG1 / kappa; also called hz2-7(1L2)
In the case of B5, the EC50 was 0.013 mg/L in assay [2], 0.012 mg/L in assay [3] and 0.004 mg/L in assay [1].

Usually EC50 stands for the midpoint of the concentration-response curve.
